In patent US20260250421A1:
Where a chain is given by its changes, count along the chain named.

B1: DS-1062 analog-LALA (antibody, V domains shown)
VH: QVQLVQSGAEVKKPGASVKVSCKASGYTFTTAGMQWVRQAPGQGLEWMGWINTHSGVPKYAEDFKGRVTISADTSTSTAYLQLSSLKSEDTAVYYCARSGFGSSYWYFDVWGQGTLVTVSS
VL: DIQMTQSPSSLSASVGDRVTITCKASQDVSTAVAWYQQKPGKAPKLLIYSASYRYTGVPSRFSGSGSGTDFTLTISSLQPEDFAVYYCQQHYITPLTFGQGTKLEIKR
B2: Sacituzumab analog (antibody, V domains shown)
VH: QVQLQQSGSELKKPGASVKVSCKASGYTFTNYGMNWVKQAPGQGLKWMGWINTYTGEPTYTDDFKGRFAFSLDTSVSTAYLQISSLKADDTAVYFCARGGFGSSYWYFDVWGQGSLVTVSS
VL: B1 VL with M4L, T20S, T31I, S60D, Q100A, L104V

Target: His-tagged dog TROP2 protein (dog)
Assay: SPR Biacore 8K, Ab on Protein A chip

Binder | Kd | koff | kon
B1 | 27.2 nM | 0.000812 s⁻¹ | 29900 M⁻¹ s⁻¹
B2 | 42 nM | 0.00858 s⁻¹ | 204000 M⁻¹ s⁻¹
